Experiments:
[1] = test system: CC(=O)N[C@H]1[C@H]([C@H](O)[C@H](O)CO)O[C@](OP(=O)(O)OC[C@H]2O[C@@H](n3ccc(N)nc3=O)[C@H](O)[C@@H]2O)(C(=O)O)C[C@@H]1O; assay: CMP-Neu5Ac (donor) hydrolysis activity, capillary electrophoresis; assay type: biochemical, Pasteurella multocida; details: other: apparent, Tris-HCl pH 8.5, 37° C., 15 min
Procedure: (§1) Site-directed mutagenesis, expression and purification of PmST1 mutants. Site-directed mutagenesis was performed using the QuikChange multi-site-directed mutagenesis kit from Stratagene according to the manufacturer's protocol. The primers used were 5′-[…]-3′ (SEQ ID NO:35) for M144D; 5′-[…]a[…] -3′ (SEQ ID NO:36) for M144H; 5′-[…]-3′ (SEQ ID NO:37) for A35D; and 5′-[…]-3′ (SEQ ID NO:38) for A35H. The expression and purification of the mutants were performed as previously described for the WT PmST1 .
Kinetics of the donor hydrolysis activity of PmST1 and mutants by capillary electrophoresis analysis. […] The reactions were stopped by adding 10 μL of pre-chilled ethanol. The mixtures were incubated on ice for 30 min and centrifuged at 13,000 rpm for 5 min. The supernatants were diluted with borate buffer (25 mM, pH 9.5) and aliquotes of 5 μL each were injected to a Beckman Coulter P/ACE™ MDQ Capillary Electrophoresis system equipped with a capillary (60 cm×75 μm i.d.) and monitored at 254 nm. The apparent kinetic parameters were obtained by fitting the experimental data (the average values of duplicate assay results) into the Michaelis-Menten equation using Grafit 5.0.

[2] = test system: CC(=O)N[C@H]1[C@H](Oc2ccc3c(C)cc(=O)oc3c2)O[C@H](CO)[C@@H](O[C@@H]2O[C@H](CO)[C@H](O)[C@H](O)[C@H]2O)[C@@H]1O[C@@H]1O[C@@H](C)[C@@H](O)[C@@H](O)[C@@H]1O; assay: α2-3-sialyltransferase activity, Le^xβMU as acceptor; assay type: biochemical, Pasteurella multocida; details: other: apparent, acceptor, CMP-Neu5Ac 1 mM, CAPSO pH 9.5, 37° C.
Procedure: as §1
(§2) Kinetics of the α2-3-sialyltransferase activity of PmST1 mutants by HPLC analysis. With LacβMU as the acceptor substrate, the reactions were performed in duplicate at 37° C. for 10 min (M144D) or 4 min (M144H) in a reaction mixture (10 μL) containing Tris-HCl (100 mM, pH 8.5), an enzyme (5 μg mL^−1), and different concentrations (0.2, 0.5, 1.0, 2.0, and 5.0 mM) of LacβMU with a fixed concentration (1 mM) of CMP-Neu5Ac or different concentrations (0.2, 0.5, 1.0, 2.0, 5.0, and 10.0 mM) of CMP-Neu5Ac with a fixed concentration (1 mM) of LacβMU. With Le^xβMU as the acceptor substrate, the reactions were carried out in duplicate at 37° C. for 9 min (M144D) or 10 min (M144H) in a reaction mixture (10 μL) containing CAPSO (100 mM, pH 9.5), an enzyme (M144D, 39 μg mL^−1 or M144H, 5 μg mL^−), and various concentrations of Le^xβMU (1.0, 5.0, 10.0, 15.0, 25.0, and 35.0 mM) with a fixed concentration (1 mM) of CMP-Neu5Ac or various concentrations (0.2, 0.5, 1.0, 2.0, 5.0, 10.0, 20.0, and 40.0 mM) of CMP-Neu5Ac with a fixed concentration (1 mM) of Le^xβMU. Reactions were stopped by adding 10 μL of pre-chilled ethanol. The mixtures were incubated on ice for 30 min and centrifuged at 13,000 rpm for 5 min. The supernatants were diluted with 25% acetonitrile and kept on ice until aliquots of 8 μL were injected and analyzed by the Shimadzu LC-6AD system equipped with a membrane on-line degasser, a temperature control unit, and a fluorescence detector (Shimadzu RF-10AXL). A reverse-phase Premier C18 column (250×4.6 mm i.d., 5 μm particle size, Shimadzu) protected with a C18 guard column cartridge was used. The mobile phase was 25% acetonitrile. The fluorophore (MU)-labeled compounds were detected by excitation at 325 nm and emission at 372 nm. The apparent kinetic parameters were obtained by fitting the experimental data (the average values of duplicate assay results) into the Michaelis-Menten equation using Grafit 5.0.

[3] = test system: CC(=O)N[C@H]1[C@H]([C@H](O)[C@H](O)CO)O[C@](OP(=O)(O)OC[C@H]2O[C@@H](n3ccc(N)nc3=O)[C@H](O)[C@@H]2O)(C(=O)O)C[C@@H]1O; assay: as above; assay type: biochemical, Pasteurella multocida; details: other: apparent, donor, Le^xβMU 1 mM, CAPSO pH 9.5, 37° C.
Procedure: as §1, §2

[4] = test system: CC(=O)N[C@H]1[C@H]([C@H](O)[C@H](O)CO)O[C@](OP(=O)(O)OC[C@H]2O[C@@H](n3ccc(N)nc3=O)[C@H](O)[C@@H]2O)(C(=O)O)C[C@@H]1O; assay: α2-3-sialyltransferase activity, LacβMU as acceptor; assay type: biochemical, Pasteurella multocida; details: other: apparent, donor, LacβMU 1 mM, Tris-HCl pH 8.5, 37° C.
Procedure: as §1, §2

[5] = test system: Cc1cc(=O)oc2cc(O[C@@H]3O[C@H](CO)[C@@H](O[C@@H]4O[C@H](CO)[C@H](O)[C@H](O)[C@H]4O)[C@H](O)[C@H]3O)ccc12; assay: as above; assay type: biochemical, Pasteurella multocida; details: other: apparent, acceptor, CMP-Neu5Ac 1 mM, Tris-HCl pH 8.5, 37° C.
Procedure: as §1, §2

[6] = test system: CC(=O)N[C@H]1[C@H]([C@H](O)[C@H](O)CO)O[C@@](O[C@H]2[C@@H](O)[C@@H](CO)O[C@@H](O[C@H]3[C@H](O)[C@@H](O)[C@H](Oc4ccc5c(C)cc(=O)oc5c4)O[C@@H]3CO)[C@@H]2O)(C(=O)O)C[C@@H]1O; assay: α2-3-sialidase activity, Neu5Acα2-3LacβMU as substrate; assay type: biochemical, Pasteurella multocida; details: other: apparent, MES pH 5.5, 37° C.
Procedure: as §1
Kinetics of the α2-3-sialidase activity of PmST1 mutants. The reactions were performed in duplicate in a total volume of 10 μL at 37° C. for 60 min (M144D) or 15 min (M144H) in MES buffer (100 mM, pH 5.5) containing Neu5Acα2-3LacβMU (0.4, 1, 2, 4, 10, 20, 40 and 60 mM) and an enzyme (M144H, 1.36 mg mL^−1 or M144D, 1.05 mg mL^−1). Sample treatment after the reaction and analysis were carried out by HPLC similar to that described above for the α2-3-sialyltransferase assays.

[7] = test system: CC(=O)N[C@H]1[C@H](Oc2ccc3c(C)cc(=O)oc3c2)O[C@H](CO)[C@@H](O[C@@H]2O[C@H](CO)[C@H](O)[C@H](O)[C@H]2O)[C@@H]1O[C@@H]1O[C@@H](C)[C@@H](O)[C@@H](O)[C@@H]1O; assay: purified protein, by the assay type; details: other: apparent; acceptor; WT; 37.0 °C
[8] = test system: CC(=O)N[C@H]1[C@H]([C@H](O)[C@H](O)CO)O[C@](OP(=O)(O)OC[C@H]2O[C@@H](n3ccc(N)nc3=O)[C@H](O)[C@@H]2O)(C(=O)O)C[C@@H]1O; assay: purified protein, by the assay type; details: other: apparent, WT
[9] = Apparent kinetics of the α2-3-sialidase activity (HPLC, fluorescent sialoside substrate); assay type: biochemical; details: substrate Neu5Acα2-3LacβMU
Procedure: All the sialidase and α2-3-sialyltransferase assays were performed in an HPLC system. Reactions were stopped by adding 10 μL of ethanol. […] The mobile phase was 25% acetonitrile.
Kinetics of the α2-3-sialidase activity of PmST1 mutants.

[10] = Thermal stability studies by HPLC; assay type: physicochemical; details: incubating at 37° C. for up to 2 hours
Procedure: Stability studies by HPLC. Thermal stability studies were carried out by incubating wild-type PmST1 or E271F/R313Y mutant solution (20 μg mL^−1) at 37° C. Samples were withdrawn at various time intervals for enzyme activity assays.

[11] = donor hydrolysis, Tris-HCl pH 8.5, 37° C., 15 min

## Pasteurella multocida PmST1 mutant M144H of SEQ ID NO: 13 (M120H of Δ24PmST1, SEQ ID NO: 5) (Pasteurella multocida; M144H)
[1]; M144H
  Km: 13000 ± 3000 µM
[2]; M144H
  Km: 8100 ± 900 µM
[3]; M144H
  Km: 400 ± 50 µM
[4]; M144H
  Km: 810 ± 60 µM
[5]; M144H
  Km: 790 ± 40 µM
[6]; M144H, 15 min
  Km: 1700 ± 300 µM

## Pasteurella multocida PmST1 mutant M144D of SEQ ID NO: 13 (M120D of Δ24PmST1, SEQ ID NO: 3) (Pasteurella multocida; M144D)
[1]; M144D
  Km: 7300 ± 500 µM
[2]; M144D
  Km: 13000 ± 2000 µM
[3]; M144D
  Km: 2100 ± 100 µM
[4]; M144D
  Km: 300 ± 50 µM
[5]; M144D
  Km: 12000 ± 1000 µM
[6]; M144D, 60 min
  Km: 20000 ± 2000 µM

## Pasteurella multocida α2-3-sialyltransferase 1 (PmST1), wild type (WT), SEQ ID NO: 13 (Pasteurella multocida)
[7]
  Km: 17000 ± 2000 µM
  kcat: 6.7 ± 0.3 s⁻¹
[8]; [11]
  Km: 1500 ± 200 µM
  kcat: 27 ± 1 s⁻¹
  kcat/Km: 18000 M⁻¹ s⁻¹
[8]; donor, with Le^xβMU, 37.0 °C
  Km: 390 ± 30 µM
  kcat: 0.55 ± 0.01 s⁻¹

B1: E271F/R313Y (protein, listed as Pasteurella multocida)
chain: MKNRRLNFKLFFLIIFSLFSTLSWSKTITLYLDPASLPALNQLMDFTQNNEDKTHPRIFGLSRFKIPDNIITQYQNIHFVELKDNRPTEALFTILDQYPGNIELNIHLNIAHSVQLIRPILAYRFKHLDRVSIQQLNLYDDGSMEYVDLEKEENKDISAEIKQAEKQLSHYLLTGKIKFDNPTIARYVWQSAFPVKYHFLSTDYFEKAEFLQPLKEYLAENYQKMDWTAYQQLTPEQQAFYLTLVGFNDEVKQSLEVQQAKFIFTGTTTWFGNTDVREYYAQQQLNLLNHFTQAEGDLFIGDHYKIYFKGHPYGGEINDYILNNAKNITNIPANISFEVLMMTGLLPDKVGGVASSLYFSLPKEKISHIIFTSNKQVKSKEDALNNPYVKVMRRLGIIDESQVIFWDSLKQL
modifications: PmST1 wild-type glycosyltransferase family 80 (GT80), GT80 sialyltransferase, Pm0188Ph
[9]
  decrease in sialidase kcat (turnover number) compared to wild-type PmST1: 277 fold
  decrease of α2-3-sialidase activity (catalytic efficiency kcat/Km) compared to wild-type PmST1: 6,333 fold
  increase in sialidase Km value compared to wild-type PmST1: 22.5 fold
[10]
  thermal stability of α2-3-sialyltransferase activity (FIG. 3, in words): did not decrease their activities significantly

Source: patent publication US9255257B2, “PmST1 mutants for chemoenzymatic synthesis of sialyl lewis X compounds” (THE REGENTS OF THE UNIVERSITY OF CALIFORNIA, priority 2011, dated 2016)
